Measured values reported in the Human Domainome abundance scans (Beltran et al. 2025).
± gives the uncertainty stated by the source.

B1: POU domain, class 2, transcription factor 2, residues 200 to 269; numbered along this chain, P09086 (parent)
chain: LEELEQFARTFKQRRIKLGFTQGDVGLAMGKLYGNDFSQTTISRFEALNLSFKNMCKLKPLLEKWLNDAE

Variants of: B1
Assay: abundance fitness (aPCA) (normalised: wild type 0, dead -1); higher = more abundant; growth selection in yeast, the domain comes from the species named
Conditions: Homo sapiens

Variant | abundance fitness
LEELEQFARTFKQRRIKLGFTQGDVPLAMGKLYGNDFSQTTISRFEALNLSFKNMCKLKPLLEKWLNDAE [G26P] | -0.299 ± 0.05
LEELEQFARTFKQRRIKLGFTQGDVLLAMGKLYGNDFSQTTISRFEALNLSFKNMCKLKPLLEKWLNDAE [G26L] | -0.064 ± 0.034
LEELEQFARTFKQRRIKLGFTQGDVHLAMGKLYGNDFSQTTISRFEALNLSFKNMCKLKPLLEKWLNDAE [G26H] | -0.109 ± 0.12
LEELEQFARTFKQRRIKLGFTQGDVELAMGKLYGNDFSQTTISRFEALNLSFKNMCKLKPLLEKWLNDAE [G26E] | -0.023 ± 0.05
LEELEQFARTFKQRRIKLGFTQGDVALAMGKLYGNDFSQTTISRFEALNLSFKNMCKLKPLLEKWLNDAE [G26A] | -0.067 ± 0.047
LEELEQFARTFKQRRIKLGFTQGDVKLAMGKLYGNDFSQTTISRFEALNLSFKNMCKLKPLLEKWLNDAE [G26K] | -0.113 ± 0.041
LEELEQFARTFKQRRIKLGFTQGDVYLAMGKLYGNDFSQTTISRFEALNLSFKNMCKLKPLLEKWLNDAE [G26Y] | -0.085 ± 0.076
LEELEQFARTFKQRRIKLGFTQGDVRLAMGKLYGNDFSQTTISRFEALNLSFKNMCKLKPLLEKWLNDAE [G26R] | -0.165 ± 0.035
LEELEQFARTFKQRRIKLGFTQGDVCLAMGKLYGNDFSQTTISRFEALNLSFKNMCKLKPLLEKWLNDAE [G26C] | -0.105 ± 0.065
LEELEQFARTFKQRRIKLGFTQGDVILAMGKLYGNDFSQTTISRFEALNLSFKNMCKLKPLLEKWLNDAE [G26I] | -0.157 ± 0.083
LEELEQFARTFKQRRIKLGFTQGDVVLAMGKLYGNDFSQTTISRFEALNLSFKNMCKLKPLLEKWLNDAE [G26V] | -0.022 ± 0.038
LEELEQFARTFKQRRIKLGFTQGDVWLAMGKLYGNDFSQTTISRFEALNLSFKNMCKLKPLLEKWLNDAE [G26W] | -0.023 ± 0.044
LEELEQFARTFKQRRIKLGFTQGDVQLAMGKLYGNDFSQTTISRFEALNLSFKNMCKLKPLLEKWLNDAE [G26Q] | 0.042 ± 0.071
LEELEQFARTFKQRRIKLGFTQGDVDLAMGKLYGNDFSQTTISRFEALNLSFKNMCKLKPLLEKWLNDAE [G26D] | 0.047 ± 0.076
LEELEQFARTFKQRRIKLGFTQGDVTLAMGKLYGNDFSQTTISRFEALNLSFKNMCKLKPLLEKWLNDAE [G26T] | -0.014 ± 0.052
LEELEQFARTFKQRRIKLGFTQGDVMLAMGKLYGNDFSQTTISRFEALNLSFKNMCKLKPLLEKWLNDAE [G26M] | -0.131 ± 0.045
LEELEQFARTFKQRRIKLGFTQGDVFLAMGKLYGNDFSQTTISRFEALNLSFKNMCKLKPLLEKWLNDAE [G26F] | -0.18 ± 0.084
LEELEQFARTFKQRRIKLGFTQGDVGLCMGKLYGNDFSQTTISRFEALNLSFKNMCKLKPLLEKWLNDAE [A28C] | -0.108 ± 0.051
LEELEQFARTFKQRRIKLGFTQGDVGLFMGKLYGNDFSQTTISRFEALNLSFKNMCKLKPLLEKWLNDAE [A28F] | -0.032 ± 0.059
LEELEQFARTFKQRRIKLGFTQGDVGLEMGKLYGNDFSQTTISRFEALNLSFKNMCKLKPLLEKWLNDAE [A28E] | 0.06 ± 0.062

Variant | abundance fitness
LEELEQFARTFKQRRIKLGFTQGDVGLDMGKLYGNDFSQTTISRFEALNLSFKNMCKLKPLLEKWLNDAE [A28D] | 0.024 ± 0.074
LEELEQFARTFKQRRIKLGFTQGDTGLAMGKLYGNDFSQTTISRFEALNLSFKNMCKLKPLLEKWLNDAE [V25T] | -0.302 ± 0.046
LEELEQFARTFKQRRIKLGFTQGDWGLAMGKLYGNDFSQTTISRFEALNLSFKNMCKLKPLLEKWLNDAE [V25W] | -0.692 ± 0.065
LEELEQFARTFKQRRIKLGFTQGDVGGAMGKLYGNDFSQTTISRFEALNLSFKNMCKLKPLLEKWLNDAE [L27G] | -0.049 ± 0.031
LEELEQFARTFKQRRIKLGFTQGDVGNAMGKLYGNDFSQTTISRFEALNLSFKNMCKLKPLLEKWLNDAE [L27N] | -0.019 ± 0.21
LEELEQFARTFKQRRIKLGFTQGDVGRAMGKLYGNDFSQTTISRFEALNLSFKNMCKLKPLLEKWLNDAE [L27R] | 0.006 ± 0.028
LEELEQFARTFKQRRIKLGFTQGDVGCAMGKLYGNDFSQTTISRFEALNLSFKNMCKLKPLLEKWLNDAE [L27C] | -0.057 ± 0.068
LEELEQFARTFKQRRIKLGFTQGDVGIAMGKLYGNDFSQTTISRFEALNLSFKNMCKLKPLLEKWLNDAE [L27I] | -0.069 ± 0.081
LEELEQFARTFKQRRIKLGFTQGDVGWAMGKLYGNDFSQTTISRFEALNLSFKNMCKLKPLLEKWLNDAE [L27W] | -0.105 ± 0.04
LEELEQFARTFKQRRIKLGFTQGDVGHAMGKLYGNDFSQTTISRFEALNLSFKNMCKLKPLLEKWLNDAE [L27H] | -0.043 ± 0.13
LEELEQFARTFKQRRIKLGFTQGDVGSAMGKLYGNDFSQTTISRFEALNLSFKNMCKLKPLLEKWLNDAE [L27S] | -0.073 ± 0.043
LEELEQFARTFKQRRIKLGFTQGDVGTAMGKLYGNDFSQTTISRFEALNLSFKNMCKLKPLLEKWLNDAE [L27T] | -0.092 ± 0.05
LEELEQFARTFKQRRIKLGFTQGDVGAAMGKLYGNDFSQTTISRFEALNLSFKNMCKLKPLLEKWLNDAE [L27A] | 0.041 ± 0.036
LEELEQFARTFKQRRIKLGFTQGDVGPAMGKLYGNDFSQTTISRFEALNLSFKNMCKLKPLLEKWLNDAE [L27P] | -0.39 ± 0.051
LEELEQFARTFKQRRIKLGFTQGDVGMAMGKLYGNDFSQTTISRFEALNLSFKNMCKLKPLLEKWLNDAE [L27M] | -0.033 ± 0.041
LEELEQFARTFKQRRIKLGFTQGDVGVAMGKLYGNDFSQTTISRFEALNLSFKNMCKLKPLLEKWLNDAE [L27V] | 0.015 ± 0.038
LEELEQFARTFKQRRIKLGFTQGDVGYAMGKLYGNDFSQTTISRFEALNLSFKNMCKLKPLLEKWLNDAE [L27Y] | 0.026 ± 0.12
LEELEQFARTFKQRRIKLGFTQGDVGDAMGKLYGNDFSQTTISRFEALNLSFKNMCKLKPLLEKWLNDAE [L27D] | -0.012 ± 0.072
LEELEQFARTFKQRRIKLGFTQGDVGEAMGKLYGNDFSQTTISRFEALNLSFKNMCKLKPLLEKWLNDAE [L27E] | -0.059 ± 0.047
